{"source": "paper doi:10.1101/2025.10.01.679551", "about": "“Mechanism of phosphoinositide regulation of lysosomal pH via inhibition of CLC-7” (bioRxiv, 2025)", "binders": {"B1": {"name": "human ClC-7 (wild type), C-terminal 6His-tag (natural protein)", "chain": "MANVSKKVSWSGRDRDDEEAAPLLRRTARPGGGTPLLNGAGPGAARQSPRSALFRVGHMSSVELDDELLDPDMDPPHPFPKEIPHNEKLLSLKYESLDYDNSENQLFLEEERRINHTAFRTVEIKRWVICALIGILTGLVACFIDIVVENLAGLKYRVIKGNIDKFTEKGGLSFSLLLWATLNAAFVLVGSVIVAFIEPVAAGSGIPQIKCFLNGVKIPHVVRLKTLVIKVSGVILSVVGGLAVGKEGPMIHSGSVIAAGISQGRSTSLKRDFKIFEYFRRDTEKRDFVSAGAAAGVSAAFGAPVGGVLFSLEEGASFWNQFLTWRIFFASMISTFTLNFVLSIYHGNMWDLSSPGLINFGRFDSEKMAYTIHEIPVFIAMGVVGGVLGAVFNALNYWLTMFRIRYIHRPCLQVIEAVLVAAVTATVAFVLIYSSRDCQPLQGGSMSYPLQLFCADGEYNSMAAAFFNTPEKSVVSLFHDPPGSYNPLTLGLFTLVYFFLACWTYGLTVSAGVFIPSLLIGAAWGRLFGISLSYLTGAAIWADPGKYALMGAAAQLGGIVRMTLSLTVIMMEATSNVTYGFPIMLVLMTAKIVGDVFIEGLYDMHIQLQSVPFLHWEAPVTSHSLTAREVMSTPVTCLRRREKVGVIVDVLSDTASNHNGFPVVEHADDTQPARLQGLILRSQLIVLLKHKVFVERSNLGLVQRRLRLKDFRDAYPRFPPIQSIHVSQDERECTMDLSEFMNPSPYTVPQEASLPRVFKLFRALGLRHLVVVDNRNQVVGLVTRKDLARYRLGKRGLEELSLAQT", "notes": "ClC-7 Cl-/H+ antiporter, Homo sapiens, synthesised gene in pLexM; Homodimer; each subunit carries one Ostm1; The cytoplasmic domain is not resolved in the structure without lipid (9G6D); also called wtCLC7; WT-CLC7; source: HEK293F (Freestyle 293F), co-transfected with OSTM1-Flag"}, "B2": {"name": "human ClC-7 Y715C, C-terminal 6His-tag (natural protein)", "chain": "B1 chain with Y715C", "notes": "ClC-7 Cl-/H+ antiporter, Homo sapiens, synthesised gene in pLexM with the patient gain-of-function mutation Y715C; Y715C is a mutation found in human patients; The cytoplasmic domain is not resolved in 9G6E; also called CLC7Y715C-His; source: HEK293F (Freestyle 293F), co-transfected with OSTM1-Flag"}, "B3": {"name": "human Ostm1, C-terminal Flag-tag (natural protein)", "chain": "ALPFGSSPHRVFHDLLSEQQLLEVEDLSLSLLQGGGLGPLSLPPDLPDLDPECRELLLDFANSSAELTGCLVRSARPVRLCQTCYPLFQQVVSKMDNISRAAGNTSESQSCARSLLMADRMQIVVILSEFFNTTWQEANCANCLTNNSEELSNSTVYFLNLFNHTLTCFEHNLQGNAHSLLQTKNYSEVCKNCREAYKTLSSLYSEMQKMNELENKAEPGTHLCIDVEDAMNITRKLWSRTFNCSVPCSDTVPVIAVSVFILFLPVVFYLSSFLHSEQKKRKLILPKRLKSSTSFANIQENSN", "notes": "Ostm1, Homo sapiens, synthesised gene in pLexM; Two copies in the ClC-7/Ostm1 complex, one for each ClC-7 subunit; also called OSTM1-Flag; source: HEK293F (Freestyle 293F), co-transfected with CLC7-His or CLC7Y715C-His; not shown: Flag, C-terminal, kept"}}, "key": {"[1]": {"molecular_target": "the molecule itself", "assay": "cryo-EM structure; ClC-7/Ostm1 complex co-expressed in HEK293F, purified by FLAG affinity and SEC in LMNG/CHS with lipid bought as PI(3,5)P2 added during purification; supplemented with 0.1 % LMNG and 2.5 mM ATP; C2 symmetry"}, "[2]": {"molecular_target": "the molecule itself", "assay": "cryo-EM structure; ClC-7/Ostm1 complex co-expressed in HEK293F, purified by FLAG affinity and SEC in LMNG/CHS, no lipid added (apo); C2 symmetry"}, "[3]": {"molecular_target": "B1", "assay": "cryo-EM structure; ClC-7/Ostm1 complex co-expressed in HEK293F, purified by FLAG affinity and SEC in LMNG/CHS, no lipid added (apo); C2 symmetry", "details": "both partners purified"}, "[4]": {"molecular_target": "B2", "assay": "cryo-EM structure; ClC-7/Ostm1 complex co-expressed in HEK293F, purified by FLAG affinity and SEC in LMNG/CHS, no lipid added (apo); C2 symmetry", "details": "both partners purified"}}, "note": "Substitutions are numbered along the chain they refer to. Numbers in names are those of the source.", "data": [{"binder": "B1", "values": [{"measurement": "binding result", "setting": "[1]", "result": "binds"}]}, {"binder": "B2", "values": [{"measurement": "binding result", "setting": "[2]", "result": "binds"}]}, {"binder": "B3", "values": [{"measurement": "binding result", "setting": "[3]", "result": "binds"}, {"measurement": "binding result", "setting": "[4]", "result": "binds"}]}]}
